Assay results reported in publication PMC13462943, “De novo EHMT2 variants cause an autosomal dominant EHMT2-related Kleefstra syndrome via loss of G9a methyltransferase activity” (Nature Communications, 2026).

B1: G9a methyltransferase domain (aa residues 913-1193), K1162R (domain or fragment, human, UniProt Q96KQ7-1 913-1193, looked up)
chain: NRAIRTEKIICRDVARGYENVPIPCVNGVDGEPCPEDYKYISENCETSTMNIDRNITHLQHCTCVDDCSSSNCLCGQLSIRCWYDKDGRLLQEFNKIEPPLIFECNQACSCWRNCKNRVVQSGIKVRLQLYRTAKMGWGVRALQTIPQGTFICEYVGELISDAEADVREDDSYLFDLDNKDGEVYCIDARYYGNISRFINHLCDPNIIPVRVFMLHQDLRFPRIAFFSSRDIRTGEELGFDYGDRFWDIRSKYFTCQCGSEKCKHSAEAIALEQSRLARLD
notes: G9a (EHMT2), human, methyltransferase (SET) domain, aa residues 913-1193, patient variant; numbered on NP_006700.3; De novo patient variant made by site-directed mutagenesis; also called p.Lys1162Arg; c.3485A>G; source: E. coli BL21-CodonPlus (DE3)-RIPL, pET28a, purified (IMAC, TEV cleavage, SEC, second IMAC); not shown: His6, N-terminal, cleaved
B2: G9a methyltransferase domain (aa residues 913-1193), N1112S (domain or fragment, human, UniProt Q96KQ7-1 913-1193, looked up)
chain: NRAIRTEKIICRDVARGYENVPIPCVNGVDGEPCPEDYKYISENCETSTMNIDRNITHLQHCTCVDDCSSSNCLCGQLSIRCWYDKDGRLLQEFNKIEPPLIFECNQACSCWRNCKNRVVQSGIKVRLQLYRTAKMGWGVRALQTIPQGTFICEYVGELISDAEADVREDDSYLFDLDNKDGEVYCIDARYYGNISRFISHLCDPNIIPVRVFMLHQDLRFPRIAFFSSRDIRTGEELGFDYGDRFWDIKSKYFTCQCGSEKCKHSAEAIALEQSRLARLD
notes: G9a (EHMT2), human, methyltransferase (SET) domain, aa residues 913-1193, patient variant; numbered on NP_006700.3; De novo patient variant made by site-directed mutagenesis; also called p.Asn1112Ser; c.3335A>G; source: E. coli BL21-CodonPlus (DE3)-RIPL, pET28a, purified (IMAC, TEV cleavage, SEC, second IMAC); not shown: His6, N-terminal, cleaved
B3: G9a methyltransferase domain (aa residues 913-1193), A1077S (domain or fragment, human, UniProt Q96KQ7-1 913-1193, looked up)
chain: NRAIRTEKIICRDVARGYENVPIPCVNGVDGEPCPEDYKYISENCETSTMNIDRNITHLQHCTCVDDCSSSNCLCGQLSIRCWYDKDGRLLQEFNKIEPPLIFECNQACSCWRNCKNRVVQSGIKVRLQLYRTAKMGWGVRALQTIPQGTFICEYVGELISDAESDVREDDSYLFDLDNKDGEVYCIDARYYGNISRFINHLCDPNIIPVRVFMLHQDLRFPRIAFFSSRDIRTGEELGFDYGDRFWDIKSKYFTCQCGSEKCKHSAEAIALEQSRLARLD
notes: G9a (EHMT2), human, methyltransferase (SET) domain, aa residues 913-1193, patient variant; numbered on NP_006700.3; De novo patient variant made by site-directed mutagenesis; also called p.Ala1077Ser; c.3229G>T; source: E. coli BL21-CodonPlus (DE3)-RIPL, pET28a, purified (IMAC, TEV cleavage, SEC, second IMAC); not shown: His6, N-terminal, cleaved
B4: G9a methyltransferase domain (aa residues 913-1193), F1158L (domain or fragment, human, UniProt Q96KQ7-1 913-1193, looked up)
chain: NRAIRTEKIICRDVARGYENVPIPCVNGVDGEPCPEDYKYISENCETSTMNIDRNITHLQHCTCVDDCSSSNCLCGQLSIRCWYDKDGRLLQEFNKIEPPLIFECNQACSCWRNCKNRVVQSGIKVRLQLYRTAKMGWGVRALQTIPQGTFICEYVGELISDAEADVREDDSYLFDLDNKDGEVYCIDARYYGNISRFINHLCDPNIIPVRVFMLHQDLRFPRIAFFSSRDIRTGEELGFDYGDRLWDIKSKYFTCQCGSEKCKHSAEAIALEQSRLARLD
notes: G9a (EHMT2), human, methyltransferase (SET) domain, aa residues 913-1193, patient variant; numbered on NP_006700.3; De novo patient variant made by site-directed mutagenesis; also called p.Phe1158Leu; c.3472T>C; source: E. coli BL21-CodonPlus (DE3)-RIPL, pET28a, purified (IMAC, TEV cleavage, SEC, second IMAC); not shown: His6, N-terminal, cleaved
B5: G9a methyltransferase domain (aa residues 913-1193), wild type (domain or fragment, human, UniProt Q96KQ7-1 913-1193, looked up)
chain: NRAIRTEKIICRDVARGYENVPIPCVNGVDGEPCPEDYKYISENCETSTMNIDRNITHLQHCTCVDDCSSSNCLCGQLSIRCWYDKDGRLLQEFNKIEPPLIFECNQACSCWRNCKNRVVQSGIKVRLQLYRTAKMGWGVRALQTIPQGTFICEYVGELISDAEADVREDDSYLFDLDNKDGEVYCIDARYYGNISRFINHLCDPNIIPVRVFMLHQDLRFPRIAFFSSRDIRTGEELGFDYGDRFWDIKSKYFTCQCGSEKCKHSAEAIALEQSRLARLD
notes: G9a (EHMT2), human, methyltransferase (SET) domain, aa residues 913-1193; variants numbered on NP_006700.3; His tag removed by TEV protease; also called EHMT2; euchromatin histone lysine methyltransferase 2; source: E. coli BL21-CodonPlus (DE3)-RIPL, pET28a, purified (IMAC, TEV cleavage, SEC, second IMAC); not shown: His6, N-terminal, cleaved
B6: G9a methyltransferase domain (aa residues 913-1193), A1077T (domain or fragment, human, UniProt Q96KQ7-1 913-1193, looked up)
chain: NRAIRTEKIICRDVARGYENVPIPCVNGVDGEPCPEDYKYISENCETSTMNIDRNITHLQHCTCVDDCSSSNCLCGQLSIRCWYDKDGRLLQEFNKIEPPLIFECNQACSCWRNCKNRVVQSGIKVRLQLYRTAKMGWGVRALQTIPQGTFICEYVGELISDAETDVREDDSYLFDLDNKDGEVYCIDARYYGNISRFINHLCDPNIIPVRVFMLHQDLRFPRIAFFSSRDIRTGEELGFDYGDRFWDIKSKYFTCQCGSEKCKHSAEAIALEQSRLARLD
notes: G9a (EHMT2), human, methyltransferase (SET) domain, aa residues 913-1193, patient variant; numbered on NP_006700.3; De novo patient variant made by site-directed mutagenesis; also called p.Ala1077Thr; c.3229G>A; source: E. coli BL21-CodonPlus (DE3)-RIPL, pET28a, purified (IMAC, TEV cleavage, SEC, second IMAC); not shown: His6, N-terminal, cleaved
B7: GLP methyltransferase domain (aa 1001-1266), wild type (domain or fragment, human, UniProt Q9H9B1-1 1001-1266, looked up)
chain: DRPSPVERIVSRDIARGYERIPIPCVNAVDSEPCPSNYKYVSQNCVTSPMNIDRNITHLQYCVCIDDCSSSNCMCGQLSMRCWYDKDGRLLPEFNMAEPPLIFECNHACSCWRNCRNRVVQNGLRARLQLYRTRDMGWGVRSLQDIPPGTFVCEYVGELISDSEADVREEDSYLFDLDNKDGEVYCIDARFYGNVSRFINHHCEPNLVPVRVFMAHQDLRFPRIAFFSTRLIEAGEQLGFDYGERFWDIKGKLFSCRCGSPKCRHS
notes: GLP (EHMT1), human, methyltransferase (SET) domain, aa 1001-1266; NM_024757.5 is printed for the EHMT1 variant of the Kleefstra syndrome 1 patient, not expressly for this construct; also called EHMT1; euchromatin histone lysine methyltransferase 1; source: E. coli BL21-CodonPlus (DE3)-RIPL, pET28a, purified (IMAC, TEV cleavage, SEC, second IMAC); not shown: His6, N-terminal, cleaved
B8: G9a methyltransferase domain (aa residues 913-1193), Del 1163-4 (domain or fragment, human, UniProt Q96KQ7-1 913-1193, looked up)
chain: NRAIRTEKIICRDVARGYENVPIPCVNGVDGEPCPEDYKYISENCETSTMNIDRNITHLQHCTCVDDCSSSNCLCGQLSIRCWYDKDGRLLQEFNKIEPPLIFECNQACSCWRNCKNRVVQSGIKVRLQLYRTAKMGWGVRALQTIPQGTFICEYVGELISDAEADVREDDSYLFDLDNKDGEVYCIDARYYGNISRFINHLCDPNIIPVRVFMLHQDLRFPRIAFFSSRDIRTGEELGFDYGDRFWDIKYFTCQCGSEKCKHSAEAIALEQSRLARLD
notes: G9a (EHMT2), human, methyltransferase (SET) domain, aa residues 913-1193, patient variant; numbered on NP_006700.3; De novo patient variant made by site-directed mutagenesis; also called p.Ser1163_Lys1164del; c.3487_3492del; source: E. coli BL21-CodonPlus (DE3)-RIPL, pET28a, purified (IMAC, TEV cleavage, SEC, second IMAC); not shown: His6, N-terminal, cleaved
B9: G9a methyltransferase domain (aa residues 913-1193), Del 1076-9 (domain or fragment, human, UniProt Q96KQ7-1 913-1193, looked up)
chain: NRAIRTEKIICRDVARGYENVPIPCVNGVDGEPCPEDYKYISENCETSTMNIDRNITHLQHCTCVDDCSSSNCLCGQLSIRCWYDKDGRLLQEFNKIEPPLIFECNQACSCWRNCKNRVVQSGIKVRLQLYRTAKMGWGVRALQTIPQGTFICEYVGELISDAREDDSYLFDLDNKDGEVYCIDARYYGNISRFINHLCDPNIIPVRVFMLHQDLRFPRIAFFSSRDIRTGEELGFDYGDRFWDIKSKYFTCQCGSEKCKHSAEAIALEQSRLARLD
notes: G9a (EHMT2), human, methyltransferase (SET) domain, aa residues 913-1193, patient variant; numbered on NP_006700.3; also called p.Glu1076_Val1079del; c.3225_3236del; source: E. coli BL21-CodonPlus (DE3)-RIPL, pET28a, purified (IMAC, TEV cleavage, SEC, second IMAC); not shown: His6, N-terminal, cleaved

Target: the molecule itself
Test: native MS; dimerization of apo proteins: 5 µM protein in 150 mM ammonium acetate pH 7.5, 0.5 mM DTT; monomer-dimer distribution quantified

Protein	stoichiometry N
B1	2
B2	2
B3	2
B4	2
B5	2
B6	2
B7	2
B8	2
B9	2
